Experiments:
GFP-tagged Sec23 [1] = target: GFP-tagged Sec23 (UniProt Q15436); assay: co-immunoprecipitation (anti-GFP beads) and western blotting, single blot quantified; details: HEK293 cells co-transfected; parent: 1
GFP-tagged Sec23 [2] = target: GFP-tagged Sec23 (UniProt Q15436); assay: co-immunoprecipitation (anti-GFP beads) and western blotting, mean of three experiments; details: HEK293 cells co-transfected; parent: est. 1.0; read off a plot
Sec23 = Sec23 (UniProt Q15436); assay: anti-GFP co-IP, anti-FLAG blot; details: reference: wild type; sites S527,S799
GFP-Sec13 = GFP-Sec13 (UniProt P55735); assay: co-immunoprecipitation and western blotting; details: parent: 0.8
GFP-Sec13, sequence (P55735 whole entry): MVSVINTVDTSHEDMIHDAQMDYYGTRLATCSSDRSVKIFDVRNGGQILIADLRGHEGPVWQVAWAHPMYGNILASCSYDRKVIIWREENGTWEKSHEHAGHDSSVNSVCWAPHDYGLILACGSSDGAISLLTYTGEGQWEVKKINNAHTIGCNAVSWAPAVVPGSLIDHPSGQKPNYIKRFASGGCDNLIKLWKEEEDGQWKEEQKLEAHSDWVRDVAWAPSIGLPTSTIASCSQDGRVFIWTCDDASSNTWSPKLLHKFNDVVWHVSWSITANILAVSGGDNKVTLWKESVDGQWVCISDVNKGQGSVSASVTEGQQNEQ

FLAG-tagged wild type (WT) Sec31 (from UniProt O94979) S527A; S799A; T1163A; T1165A, sequence (O94979 whole entry, stated change not applied): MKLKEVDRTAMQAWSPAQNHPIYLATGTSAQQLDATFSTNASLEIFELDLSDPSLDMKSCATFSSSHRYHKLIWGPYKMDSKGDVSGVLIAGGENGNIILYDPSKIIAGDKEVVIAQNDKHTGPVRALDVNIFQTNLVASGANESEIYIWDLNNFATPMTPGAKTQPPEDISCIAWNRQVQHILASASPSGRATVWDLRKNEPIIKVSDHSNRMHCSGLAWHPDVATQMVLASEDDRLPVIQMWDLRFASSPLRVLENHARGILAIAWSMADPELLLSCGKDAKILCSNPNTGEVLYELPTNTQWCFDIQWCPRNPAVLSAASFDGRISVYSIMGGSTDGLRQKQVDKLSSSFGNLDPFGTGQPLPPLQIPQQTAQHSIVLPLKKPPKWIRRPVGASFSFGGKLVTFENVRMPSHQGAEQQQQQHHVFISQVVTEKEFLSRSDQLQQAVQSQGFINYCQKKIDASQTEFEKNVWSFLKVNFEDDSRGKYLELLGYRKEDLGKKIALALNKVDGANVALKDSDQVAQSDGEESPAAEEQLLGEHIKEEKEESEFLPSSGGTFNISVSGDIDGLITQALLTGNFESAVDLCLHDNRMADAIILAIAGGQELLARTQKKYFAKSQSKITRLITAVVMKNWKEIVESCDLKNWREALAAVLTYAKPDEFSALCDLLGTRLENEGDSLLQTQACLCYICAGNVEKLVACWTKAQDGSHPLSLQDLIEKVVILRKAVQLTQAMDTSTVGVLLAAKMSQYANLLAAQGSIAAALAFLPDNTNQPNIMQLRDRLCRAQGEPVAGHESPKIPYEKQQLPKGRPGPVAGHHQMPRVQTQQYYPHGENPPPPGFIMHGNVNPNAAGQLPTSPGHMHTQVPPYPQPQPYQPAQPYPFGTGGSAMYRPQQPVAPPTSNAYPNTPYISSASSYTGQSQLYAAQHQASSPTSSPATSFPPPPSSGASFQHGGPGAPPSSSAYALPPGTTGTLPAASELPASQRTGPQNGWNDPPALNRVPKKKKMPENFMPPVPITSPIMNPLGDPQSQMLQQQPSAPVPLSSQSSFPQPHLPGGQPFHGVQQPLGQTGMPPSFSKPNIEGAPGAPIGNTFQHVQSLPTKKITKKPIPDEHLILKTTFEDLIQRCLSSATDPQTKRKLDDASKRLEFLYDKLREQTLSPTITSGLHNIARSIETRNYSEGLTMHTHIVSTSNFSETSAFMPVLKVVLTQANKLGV
GFP-tagged Sec23, sequence (Q15436 whole entry): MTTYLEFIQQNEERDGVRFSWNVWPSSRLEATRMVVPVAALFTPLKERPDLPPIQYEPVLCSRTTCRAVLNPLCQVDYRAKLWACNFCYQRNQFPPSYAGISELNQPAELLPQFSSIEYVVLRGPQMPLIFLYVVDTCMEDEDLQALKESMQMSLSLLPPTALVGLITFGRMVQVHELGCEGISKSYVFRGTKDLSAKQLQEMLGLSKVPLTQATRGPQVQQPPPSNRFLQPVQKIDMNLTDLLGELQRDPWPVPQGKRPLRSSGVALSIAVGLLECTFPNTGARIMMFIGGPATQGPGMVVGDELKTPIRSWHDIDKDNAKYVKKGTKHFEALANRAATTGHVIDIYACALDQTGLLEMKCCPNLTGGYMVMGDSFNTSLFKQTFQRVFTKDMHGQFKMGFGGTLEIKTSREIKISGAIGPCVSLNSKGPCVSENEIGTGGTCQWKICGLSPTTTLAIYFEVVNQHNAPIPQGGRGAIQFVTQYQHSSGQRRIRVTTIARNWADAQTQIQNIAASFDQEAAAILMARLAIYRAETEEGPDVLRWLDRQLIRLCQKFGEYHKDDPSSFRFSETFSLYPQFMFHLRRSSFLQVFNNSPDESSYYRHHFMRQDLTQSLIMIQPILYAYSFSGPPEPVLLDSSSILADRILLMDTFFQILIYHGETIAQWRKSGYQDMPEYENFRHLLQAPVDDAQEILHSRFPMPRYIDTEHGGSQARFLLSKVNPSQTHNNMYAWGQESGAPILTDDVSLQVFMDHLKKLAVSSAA
FLAG-tagged wild type (WT) Sec31 (from UniProt O94979) W985A, sequence (O94979 whole entry, stated change not applied): as the sequence (O94979 whole entry, stated change not applied) above
FLAG-tagged wild type (WT) Sec31 (from UniProt O94979) T1163A, sequence (O94979 whole entry, stated change not applied): as above

ratio to parent (GFP-tagged Sec23 [1])	ratio to parent (GFP-tagged Sec23 [2])	fold change (Sec23)	other: normalized ratio of co-IP'ed Sec31 (GFP-Sec13)	Substance
0.3	0.33	–	–	FLAG-tagged wild type (WT) Sec31 (from UniProt O94979) W985A
–	–	stronger	–	Sec31 (from UniProt O94979) S527A/S799A
3.2	3.1	–	1.4	FLAG-tagged wild type (WT) Sec31 (from UniProt O94979) S527A; S799A; T1163A; T1165A
–	–	–	1.1	FLAG-tagged wild type (WT) Sec31 (from UniProt O94979) T1163A

Source: paper PMC3548793
